The experiment addresses p53_(125–134)/HLA-A24 pMHC, soluble recombinant (human | , UniProt P61769 21-119; P04637 125-134, biotin where the biotinylated pMHC was used (site not stated)). Kind of experiment: SPR. On the technique in general: SPR reads the build-up and loss of mass on a sensor chip optically.

From publication PMC6879612 (2019) come the findings set out here.

B1: P1C1gl (germline sequence converted P1C1), human IgG1 (antibody, V domains shown)
VH: QVQLQESGPGLVKPSQTLSLTCTVSGGSISSGGYYWSWIRQHPGKGLEWIGYIYYSGSTYYNPSLKSRVTISVDTSKNQFSLKLSSVTAADTAVYYCARENFGAFDHWGQGTLVTVSS
VL: QSVLTQPPSVSGAPGQRVTISCTGSSSNIGADYETHWYQQLPGTAPKLLIYGNTNRPSGVPDRFSGSKSGTSASLAITGLQAEDEADYYCQSYDSNLSAWVFGGGTKLTIL
A word on the koff: it is the first-order rate constant of dissociation. B1: the koff worked out at 0.139 s⁻¹.
